From patent US20130157929A1, “GLUCAGON ANALOGUES” (ZEALAND PHARMA A/S, published 2013)
Starred links: 1 amine or outer side, 2 acyl side, 3 side chain; linkers in the order of their positions; H or OH if unused. Non-standard residues stand in square brackets, D forms with d. Groups on a side chain read outwards from the residue. *: point of attachment. γGlu = O=C(O)[C@H](CCC(=O)[*:2])N[*:1]; Palmitoyl = CCCCCCCCCCCCCCCC(=O)*; 3Pal = N[C@@H](Cc1cccnc1)C(=O)O; Cit = NC(=O)NCCC[C@H](N)C(=O)O; Aib = CC(C)(N)C(=O)O

What was measured:
[1] = molecular target: human glucagon receptor (glucagon-R) (human, UniProt P47871); test: cell-based or functional assay
[2] = molecular target: human glucagon-like peptide 1 receptor (GLP-1R) (human, UniProt P43220); test: cell-based or functional assay

Binder	EC50 (nM) GluR, cAMP formation [1] [nM]	EC50 (nM) GLP-1R, cAMP formation [2] [nM]	EC50 (nM) GluR, cAMP formation, earlier determination [1] [nM]	EC50 (nM) GLP-1R, cAMP formation, earlier determination [2] [nM]
H-H[Aib]SGTFTSDYSKYLDSK([γGlu-Palmitoyl])AAHDFVEWLLSA-NH2 (SMILES CCCCCCCCCCCCCCCC(=O)N[C@@H](CCC(=O)NCCCC[C@H](NC(=O)[C@H](CO)NC(=O)[C@H](CC(=O)O)NC(=O)[C@H](CC(C)C)NC(=O)[C@H](Cc1ccc(O)cc1)NC(=O)[C@H](CCCCN)NC(=O)[C@H](CO)NC(=O)[C@H](Cc1ccc(O)cc1)NC(=O)[C@H](CC(=O)O)NC(=O)[C@H](CO)NC(=O)[C@@H](NC(=O)[C@H](Cc1ccccc1)NC(=O)[C@@H](NC(=O)CNC(=O)[C@H](CO)NC(=O)C(C)(C)NC(=O)[C@@H](N)Cc1c[nH]cn1)[C@@H](C)O)[C@@H](C)O)C(=O)N[C@@H](C)C(=O)N[C@@H](C)C(=O)N[C@@H](Cc1c[nH]cn1)C(=O)N[C@@H](CC(=O)O)C(=O)N[C@@H](Cc1ccccc1)C(=O)N[C@H](C(=O)N[C@@H](CCC(=O)O)C(=O)N[C@@H](Cc1c[nH]c2ccccc12)C(=O)N[C@@H](CC(C)C)C(=O)N[C@@H](CC(C)C)C(=O)N[C@@H](CO)C(=O)N[C@@H](C)C(N)=O)C(C)C)C(=O)O) [Compound 18]	8	0.09	–	–
H-H[Aib][3‑(4-thiazolyl)alanyl]GTFTSDYSKYLDSK([γGlu-Palmitoyl])AAHDFVEWLLSA-NH2 [Compound 23]	0.99	0.11	–	–
H-H[Aib][3Pal]GTFTSDYSKYLDSK([γGlu-Palmitoyl])AAHDFVEWLLSA-NH2 [Compound 24]	1.04	0.14	–	–
H-H[Aib][Cit]GTFTSDYSKYLDSK([γGlu-Palmitoyl])AAHDFVEWLLSA-NH2 (SMILES CCCCCCCCCCCCCCCC(=O)N[C@@H](CCC(=O)NCCCC[C@H](NC(=O)[C@H](CO)NC(=O)[C@H](CC(=O)O)NC(=O)[C@H](CC(C)C)NC(=O)[C@H](Cc1ccc(O)cc1)NC(=O)[C@H](CCCCN)NC(=O)[C@H](CO)NC(=O)[C@H](Cc1ccc(O)cc1)NC(=O)[C@H](CC(=O)O)NC(=O)[C@H](CO)NC(=O)[C@@H](NC(=O)[C@H](Cc1ccccc1)NC(=O)[C@@H](NC(=O)CNC(=O)[C@H](CCCNC(N)=O)NC(=O)C(C)(C)NC(=O)[C@@H](N)Cc1c[nH]cn1)[C@@H](C)O)[C@@H](C)O)C(=O)N[C@@H](C)C(=O)N[C@@H](C)C(=O)N[C@@H](Cc1c[nH]cn1)C(=O)N[C@@H](CC(=O)O)C(=O)N[C@@H](Cc1ccccc1)C(=O)N[C@H](C(=O)N[C@@H](CCC(=O)O)C(=O)N[C@@H](Cc1c[nH]c2ccccc12)C(=O)N[C@@H](CC(C)C)C(=O)N[C@@H](CC(C)C)C(=O)N[C@@H](CO)C(=O)N[C@@H](C)C(N)=O)C(C)C)C(=O)O) [Compound 21]	35	1.2	–	–
H-H[Aib][3‑(2-thienyl)alanyl]GTFTSDYSKYLDSK([γGlu-Palmitoyl])AAHDFVEWLLSA-NH2 [Compound 26]	1.16	0.08	–	–
H-H[Aib]HGTFTSDYSKYLDSK([γGlu-Palmitoyl])AAHDFVEWLLSA-NH2 (SMILES CCCCCCCCCCCCCCCC(=O)N[C@@H](CCC(=O)NCCCC[C@H](NC(=O)[C@H](CO)NC(=O)[C@H](CC(=O)O)NC(=O)[C@H](CC(C)C)NC(=O)[C@H](Cc1ccc(O)cc1)NC(=O)[C@H](CCCCN)NC(=O)[C@H](CO)NC(=O)[C@H](Cc1ccc(O)cc1)NC(=O)[C@H](CC(=O)O)NC(=O)[C@H](CO)NC(=O)[C@@H](NC(=O)[C@H](Cc1ccccc1)NC(=O)[C@@H](NC(=O)CNC(=O)[C@H](Cc1c[nH]cn1)NC(=O)C(C)(C)NC(=O)[C@@H](N)Cc1c[nH]cn1)[C@@H](C)O)[C@@H](C)O)C(=O)N[C@@H](C)C(=O)N[C@@H](C)C(=O)N[C@@H](Cc1c[nH]cn1)C(=O)N[C@@H](CC(=O)O)C(=O)N[C@@H](Cc1ccccc1)C(=O)N[C@H](C(=O)N[C@@H](CCC(=O)O)C(=O)N[C@@H](Cc1c[nH]c2ccccc12)C(=O)N[C@@H](CC(C)C)C(=O)N[C@@H](CC(C)C)C(=O)N[C@@H](CO)C(=O)N[C@@H](C)C(N)=O)C(C)C)C(=O)O) [Compound 1]	0.26	0.21	–	–
H-H[Aib][3‑(1,2,4-triazol-1-yl)alanyl]GTFTSDYSKYLDSK([γGlu-Palmitoyl])AAHDFVEWLLSA-NH2 [Compound 25]	0.71	0.09	–	–
H-H[Aib]IGTFTSDYSKYLDSK([γGlu-Palmitoyl])AAHDFVEWLLSA-NH2 (SMILES CCCCCCCCCCCCCCCC(=O)N[C@@H](CCC(=O)NCCCC[C@H](NC(=O)[C@H](CO)NC(=O)[C@H](CC(=O)O)NC(=O)[C@H](CC(C)C)NC(=O)[C@H](Cc1ccc(O)cc1)NC(=O)[C@H](CCCCN)NC(=O)[C@H](CO)NC(=O)[C@H](Cc1ccc(O)cc1)NC(=O)[C@H](CC(=O)O)NC(=O)[C@H](CO)NC(=O)[C@@H](NC(=O)[C@H](Cc1ccccc1)NC(=O)[C@@H](NC(=O)CNC(=O)[C@@H](NC(=O)C(C)(C)NC(=O)[C@@H](N)Cc1c[nH]cn1)[C@@H](C)CC)[C@@H](C)O)[C@@H](C)O)C(=O)N[C@@H](C)C(=O)N[C@@H](C)C(=O)N[C@@H](Cc1c[nH]cn1)C(=O)N[C@@H](CC(=O)O)C(=O)N[C@@H](Cc1ccccc1)C(=O)N[C@H](C(=O)N[C@@H](CCC(=O)O)C(=O)N[C@@H](Cc1c[nH]c2ccccc12)C(=O)N[C@@H](CC(C)C)C(=O)N[C@@H](CC(C)C)C(=O)N[C@@H](CO)C(=O)N[C@@H](C)C(N)=O)C(C)C)C(=O)O) [Compound 19]	0.74	0.16	3	–
H-H[Aib][3‑(2-furyl)alanyl]GTFTSDYSKYLDSK([γGlu-Palmitoyl])AAHDFVEWLLSA-NH2 [Compound 22]	3.8	0.06	–	–
H-H[Aib]GGTFTSDYSKYLDSK([γGlu-Palmitoyl])AAHDFVEWLLSA-NH2 (SMILES CCCCCCCCCCCCCCCC(=O)N[C@@H](CCC(=O)NCCCC[C@H](NC(=O)[C@H](CO)NC(=O)[C@H](CC(=O)O)NC(=O)[C@H](CC(C)C)NC(=O)[C@H](Cc1ccc(O)cc1)NC(=O)[C@H](CCCCN)NC(=O)[C@H](CO)NC(=O)[C@H](Cc1ccc(O)cc1)NC(=O)[C@H](CC(=O)O)NC(=O)[C@H](CO)NC(=O)[C@@H](NC(=O)[C@H](Cc1ccccc1)NC(=O)[C@@H](NC(=O)CNC(=O)CNC(=O)C(C)(C)NC(=O)[C@@H](N)Cc1c[nH]cn1)[C@@H](C)O)[C@@H](C)O)C(=O)N[C@@H](C)C(=O)N[C@@H](C)C(=O)N[C@@H](Cc1c[nH]cn1)C(=O)N[C@@H](CC(=O)O)C(=O)N[C@@H](Cc1ccccc1)C(=O)N[C@H](C(=O)N[C@@H](CCC(=O)O)C(=O)N[C@@H](Cc1c[nH]c2ccccc12)C(=O)N[C@@H](CC(C)C)C(=O)N[C@@H](CC(C)C)C(=O)N[C@@H](CO)C(=O)N[C@@H](C)C(N)=O)C(C)C)C(=O)O) [Compound 20]	26	0.21	–	0.89
